“And” between values parts separate entries of the source, which are not always exact repeats. Identical values can stand only once.
Columns and labels:
[1] = biological target: high-affinity cell surface thrombin receptor on mouse embryo (ME) cells (mouse) (UniProt P30558); experiment: competition with [^125I]-alpha-thrombin (1 nM) on quiescent ME cells; at 40 nM peptide
[2] = biological target: high-affinity cell surface thrombin receptor on mouse embryo (ME) cells (mouse) (UniProt P30558); experiment: Scatchard analysis of direct binding of [^125I]-labelled peptide to cells (data not shown)
[3] = biological target: high-affinity cell surface thrombin receptor on mouse embryo (ME) cells (mouse) (UniProt P30558); experiment: competition with [^125I]-alpha-thrombin (1 nM) for specific binding to quiescent ME cells, 23 C
[4] = biological target: high-affinity cell surface thrombin receptor on mouse embryo (ME) cells (mouse) (UniProt P30558); experiment: cell-based or functional assay
[5] = biological target: high-affinity cell surface thrombin receptor on NIL cells (hamster fibroblasts) (hamster); experiment: cell-based or functional assay
[6] = biological target: high-affinity cell surface thrombin receptor on mouse embryo (ME) cells (mouse) (UniProt P30558); experiment: competition with 0.3 nM [^125I]-alpha-thrombin on ME cells; p508-530 from 8 to 4000 nM
[7] = biological target: high-affinity cell surface thrombin receptor on mouse embryo (ME) cells (mouse) (UniProt P30558); experiment: competition with [^125I]-alpha-thrombin (1 nM) on quiescent ME cells
[8] = biological target: high-affinity cell surface thrombin receptor on mouse embryo (ME) cells (mouse) (UniProt P30558); experiment: competition with [^125I]-alpha-thrombin (1 nM) on quiescent ME cells; at 800 nM peptide
[9] = biological target: high-affinity cell surface thrombin receptor on mouse embryo (ME) cells (mouse) (UniProt P30558); experiment: competition with [^125I]-alpha-thrombin on ME cells
[10] = biological target: high-affinity cell surface thrombin receptor on mouse embryo (ME) cells (mouse) (UniProt P30558); experiment: competition with [^125I]-alpha-thrombin on ME cells; reference p508-530

Maximal % Inhibition [1] [%] | Kd [2] [nM] | Concentration Required for 30% Inhibition [3] [nM] | concentration of p508-530 at which stimulation of ME cells was observed [4] | increase in incorporation of [^3H]-thymidine into DNA in ME cells, 0.1 uM p508-530 with 2 nM alpha-thrombin, against cultures treated with alpha-thrombin alone [4] [fold] | increase in incorporation of [^3H]-thymidine into DNA in ME cells, 0.1 uM p508-530 with 2 nM alpha-thrombin, against untreated cultures [4] [fold] | increase in DNA synthesis over controls in NIL cells in the presence of 25 ng/ml PMA [5] [fold] | percent of specific [^125I]-alpha-thrombin binding competed [6] [%] | concentration at Maximal % Inhibition [7] [nM] | Maximal % Inhibition [8] [%] | percent of [^125I]-alpha-thrombin binding competed [9] [%] | fold higher concentration for 30% inhibition than p508-530 [10] [fold] | Substance
78 | 60 | 6 | 12.5 nM and 100 nM | > 2 | 6 | 3.5 | 30 to 70 | 40 | – | – | – | synthetic peptide p508-530 (residues 508 to 530 of human prothrombin)
– | – | 200 | – | – | – | – | – | 800 | 51 | 30 to 50 | 33 | synthetic peptide p519-530 (residues 519 to 530 of the B-chain region of human prothrombin)

From patent publication US6630572
